Laboratory results taken from patent US20240076403A1 (SIMCERE ZAIMING PHARMACEUTICAL, published 2024).

Assays:
[1] = target: T1, monkey HER2-His protein (Sino Biological, Cat. No. 90295-C08H) (monkey); experiment: ELISA, 1 nM
T1 construct: also called monkey HER2 protein

[2] = target: T1, monkey HER2-His protein (Sino …); experiment: ELISA, 100 nM
[3] = target: T1, monkey HER2-His protein (Sino …); experiment: ELISA, 0.01 nM
[4] = target: T1, monkey HER2-His protein (Sino …); experiment: ELISA, 0.001 nM
[5] = target: T1, monkey HER2-His protein (Sino …); experiment: ELISA, 0.00001 nM
[6] = target: T1, monkey HER2-His protein (Sino …); experiment: ELISA, 10 nM
[7] = target: T1, monkey HER2-His protein (Sino …); experiment: ELISA, 0.1 nM
[8] = target: T1, monkey HER2-His protein (Sino …); experiment: ELISA, 0.0001 nM
[9] = target: T2, monkey HER2-His protein (monkey); experiment: SPR, antibody captured on Protein A chip, monkey HER2-His analyte, 1:1 model
T2 construct: Bought protein; also called monkey HER2 protein

[10] = target: T3, recombinant human HER2-His protein (human, UniProt P04626 23-652, limits assumed); experiment: SPR, antibody captured on Protein A chip, human HER2-His analyte, 1:1 model
T3 construct: also called human HER2 protein; not shown: His tag
Procedure: The sample and running buffer were HBS-EP+ (10 mM HEPES, 150 mM NaCl, 3 mM EDTA, 0.05% surfactant P20) (GE Healthcare; BR-1006-69). The flow cell was set at 25° C. The sample block was set at 16° C. Both were pretreated with the running buffer. In each cycle, first, the antibody to be tested was captured using the Protein A chip, and then a single concentration of HER2 antigen protein was injected. The association and dissociation processes of the antibody with the antigen protein were recorded, and finally, the chip was regenerated using Glycine pH 1.5 (GE Healthcare; BR-1003-54). The association was determined by injecting different concentrations of recombinant human HER2-His in the solution and maintaining for 240 s, wherein the flow rate was 30 μL/min, and the protein was diluted in a 1:1 dilution ratio from 200 nM (see detailed results for actual concentrations tested) to obtain 5 concentrations in total. The dissociation phase was monitored for up to 600 s and triggered by switching from the sample solution to the running buffer. The surface was regenerated by washing with 10 mM glycine solution (pH 1.5) at a flow rate of 30 μL/min for 30 s. The difference in bulk refractive index was corrected by subtracting the responses obtained from the goat anti-human Fc surface. Blank injections were also subtracted (=double referencing). To calculate the apparent KD and other kinetic parameters, the Langmuir 1:1 model was used.

| Binder | OD450 [1] | OD450 [2] | OD450 [3] | OD450 [4] | OD450 [5] | OD450 [6] | OD450 [7] | OD450 [8] | Kd [9] | koff [9] | kon [9] | Kd [10] | koff [10] | kon [10] |
| --- | --- | --- | --- | --- | --- | --- | --- | --- | --- | --- | --- | --- | --- | --- |
| Tab048 (FRP5 human IgG1) (antibody, V domains shown, control antibody, human IgG1) VH: QVQLQQSGPELKKPGETVKISCKASGYPFTNYGMNWVKQAPGQGLKWMGWINTSTGESTFADDFKGRFDFSLETSANTAYLQINNLKSEDMATYFCARWEVYHGYVPYWGQGTTVTVSS VL: DIQLTQSHKFLSTSVGDRVSITCKASQDVYNAVAWYQQKPGQSPKLLIYSASSRYTGVPSRFTGSGSGPDFTFTISSVQAEDLAVYFCQQHFRTPFTFGSGTKLEIKR | 2.24 | 2.35 | 0.52 | 0.11 | 0.05 | 2.04 | 1.83 | 0.05 |  |  |  |  |  |  |
| Tab050 (2C4 human IgG1, Pertuzumab) (antibody, V domains shown, control antibody, human IgG1) VH: EVQLVESGGGLVQPGGSLRLSCAASGFTFTDYTMDWVRQAPGKGLEWVADVNPNSGGSIYNQRFKGRFTLSVDRSKNTLYLQMNSLRAEDTAVYYCARNLGPSFYFDYWGQGTLVTVSS VL: DIQMTQSPSSLSASVGDRVTITCKASQDVSIGVAWYQQKPGKAPKLLIYSASYRYTGVPSRFSGSGSGTDFTLTISSLQPEDFATYYCQQYYIYPYTFGQGTKVEIKR | 2.04 | 2.42 |  | 0.06 | 0.05 | 2.15 | 1.11 | 0.06 |  |  |  |  |  |  |
| Tab048 (FRP5 human IgG1) (antibody, V domains shown, Control antibody in human IgG1 form) VH: QVQLQQSGPELKKPGETVKISCKASGYPFTNYGMNWVKQAPGQGLKWMGWINTSTGESTFADDFKGRFDFSLETSANTAYLQINNLKSEDMATYFCARWEVYHGYVPYWGQGTTVTVSS VL: DIQLTQSHKFLSTSVGDRVSITCKASQDVYNAVAWYQQKPGQSPKLLIYSASSRYTGVPSRFTGSGSGPDFTFTISSVQAEDLAVYFCQQHFRTPFTFGSGTKLEIKR |  |  |  |  |  |  |  |  | 0.617 nM | 0.000118 s⁻¹ | 191000 M⁻¹ s⁻¹ | 0.337 nM | 7.45e-05 s⁻¹ | 221000 M⁻¹ s⁻¹ |
